The values that follow come from US9933424 (SEOUL NATIONAL UNIVERSITY HOSPITAL, dated 2018).

Experiment [1] deals with T1, adenylyl cyclase-associated protein 1 (CAP1), human, of THP-1 cells (human, UniProt Q01518 2-475).
T1 construct: Endogenous full-length protein in THP-1 lysates or on THP-1 cells; also called human resistin receptor; 55 kDa protein
Put plainly: western blot of cell lysates probed with mFc-human resistin as primary antibody, anti-mFc-HRP detection.

Experiment [2] concerns the target T1, adenylyl cyclase-associated protein 1 …. Put plainly: conclusion of Example 4 (western blot, immunofluorescence, flow cytometry on THP-1 cells). On the technique in general: Immunoblotting shows a protein as a band on a membrane.

T1 sequence (Q01518 2-475 limits assumed): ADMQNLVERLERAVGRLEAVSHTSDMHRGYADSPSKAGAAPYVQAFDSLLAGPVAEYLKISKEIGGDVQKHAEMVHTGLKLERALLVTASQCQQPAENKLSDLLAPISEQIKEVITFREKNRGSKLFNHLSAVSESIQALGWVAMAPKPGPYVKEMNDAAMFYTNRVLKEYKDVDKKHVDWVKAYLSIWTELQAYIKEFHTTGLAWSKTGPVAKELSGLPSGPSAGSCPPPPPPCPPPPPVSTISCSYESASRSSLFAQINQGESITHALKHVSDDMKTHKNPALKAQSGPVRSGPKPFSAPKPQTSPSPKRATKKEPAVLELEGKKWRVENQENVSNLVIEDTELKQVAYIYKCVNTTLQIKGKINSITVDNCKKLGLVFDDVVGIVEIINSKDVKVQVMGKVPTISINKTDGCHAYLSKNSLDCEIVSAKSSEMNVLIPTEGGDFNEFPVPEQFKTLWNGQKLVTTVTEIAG

B1: mFc-human resistin fusion protein (mouse Fc region of immunoglobulin fused to the N-terminus of human resistin) (Fc fusion, UniProt Q9HD89 19-108, looked up)
chain: KTLCSMEEAINERIQEVAGSLIFRAISSIGLECQSVTSRGDLATCPRGFAVTGCTCGSACGSWDVRAETTCHCQCAGMDWTGARCCRVQP
notes: Expressed in HEK293-F cells from pcDNA3.1 and purified on mFc-specific beads; also called mFc-human resistin protein; mFc human resistin recombinant protein; not shown: mouse immunoglobulin Fc region (mFc); prot
With B1, the binding result in experiment [1] was “binds”.

B2: recombinant human resistin protein (ligand, UniProt Q9HD89 19-108, looked up)
chain: B1 chain
notes: also called rhResistin; human recombinant resistin
For the molecule B2, in experiment [2], the binding result is listed as “binds”.
